Earlier results, collected in patent publication US5763478A, “Triterpene derivatives with immunosuppressant activity” (Merck & Co., Inc., priority 1996, dated 1998).

Biological target: T1, KV 1.3 channels (CHO cells transfected with KV 1.3) (Homo sapiens, UniProt P22001)
T1 construct: expressed in transfected cells; host or cells: CHO cells
Details: reference blocker used at saturating concentration to set the efflux window

T1 sequence (P22001 53-575 limits assumed): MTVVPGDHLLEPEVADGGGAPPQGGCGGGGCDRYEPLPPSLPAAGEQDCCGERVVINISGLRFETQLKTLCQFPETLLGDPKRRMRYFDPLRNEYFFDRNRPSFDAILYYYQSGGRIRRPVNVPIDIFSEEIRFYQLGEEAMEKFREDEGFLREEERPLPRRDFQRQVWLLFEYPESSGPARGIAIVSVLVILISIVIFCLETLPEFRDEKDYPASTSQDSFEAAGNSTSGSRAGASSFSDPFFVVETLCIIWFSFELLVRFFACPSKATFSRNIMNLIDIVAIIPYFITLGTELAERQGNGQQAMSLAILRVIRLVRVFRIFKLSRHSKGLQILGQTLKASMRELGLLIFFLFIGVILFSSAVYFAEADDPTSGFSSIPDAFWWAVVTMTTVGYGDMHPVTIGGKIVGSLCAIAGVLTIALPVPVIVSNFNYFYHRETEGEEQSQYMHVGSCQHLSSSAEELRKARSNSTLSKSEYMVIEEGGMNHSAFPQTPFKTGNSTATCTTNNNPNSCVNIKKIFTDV

In the case of “margatoxin (TIINVKCTSPKQCLPPCKAQFGQSAGAKCMNGKCKCYPH; UniProt P40755 1-39, looked up)”, the IC50 is listed as 0.1 nM.
